Assay results from PMC2995291.
Like-named read-outs stand apart in the source and are kept apart here.

What was measured:
[1] = molecular target: human ubiquitin with noncleavable N-terminal (His)6 tag (human) (UniProt P0CG48); experiment: ITC
[2] = molecular target: human ubiquitin with noncleavable N-terminal (His)6 tag (human) (UniProt P0CG48); experiment: ITC; remark: listed apart in the source

Kd [1] [µM]	Kd [2] [µM]	dH (kcal · mol^−1) [2]	stoichiometry N [2]	Substance
23	–	–	–	human Polι UBM2 (residues 674–715) (domain or fragment)
–	172	–	–	human Polι UBM2 P692A (residues 674–715) (domain or fragment)
23.6	23.8	4.5	1.01	human Polι UBM2 (residues 679–707) (domain or fragment)
